For 23 molecules, binding result and MFI results are on record in US20240043504A1 (published 2024).

One assay has as its target SARS-COV-2 RBD-mFc (SARS-CoV-2). Nature of the assay: Luminex beads.
In assay [1] the target is SARS-CoV-2 Spike Protein (S1 Subunit, Fc Tag) (Sino 40591-V02H) (SARS-CoV-2, UniProt P0DTC2 16-685). The assay can be described thus: Luminex, supernatant.
Assay [2] deals with SARS-CoV-2 Spike Protein (S1 Subunit, His Tag) (Sino 40591-V08H) (SARS-CoV-2, UniProt P0DTC2 16-685). The assay can be described thus: Luminex, supernatant.

B1: mAb10989 (antibody, V domains shown)
VH: QVQLVQSGAEVKKPGASVKVSCKASGYIFTGYYMHWVRQAPGQGLEWMGWINPNSGGANYAQKFQGRVTLTRDTSITTVYMELSRLRFDDTAVYYCARGSRYDWNQNNWFDPWGQGTLVTVSS
VL: QSALTQPASVSGSPGQSITISCTGTSSDVGTYNYVSWYQQHPGKAPKLMIFDVSNRPSGVSDRFSGSKSGNTASLTISGLQAEDEADYYCSSFTTSSTVVFGGGTKLTVLG
Consider B1, for which the binding result with SARS-COV-2 RBD-mFc is on record as “binds”.

B2: mAb10998 (antibody, V domains shown)
VH: EVQLVESGGGLVHPGGSLRLSCAASGLTVSSNYMSWVRQAPGKGLEWVSVIYSGGSTYYADSVKGRFTISRHNSKNTLFLQMNSLRAEDTAVYYCARDRPITGTTLDVWGQGTTVTVSS
VL: DIQMTQSPSSLFASVGDRVTITCRASQSISSYLNWYQQKPGKAPKLLIYAASSLQSGVPSRFSGSGSGTDFTLTISSLQPEDFAFYYCQQTYSTPPITFGQGTRLEIK
In the case of B2, the binding result in the assay with SARS-COV-2 RBD-mFc is “binds”.

B3: mAb10967 (antibody, V domains shown)
VH: EVQLVESGGGLVQPGGSLRLSCAASGFTVSSNYMSWVRQAPGKGLEWVSVIYPGGSTFYADSVKGRFTISRDNSKNTLYLQMNSLRAEDTAVYYCARDQRDFAWGQGTLVTVSS
VL: DIQMTQSPSSLSASVGDRVTITCQASQDISNYLNWYQQKPGKAPKLLIYDASNLETGVPSRFSGSGSGTDFTFTISGLQPEDIATYYCQQYDNLPPTFGQGTRLEIKR
On to B3, for which the binding result with SARS-COV-2 RBD-mFc was “binds”.

B4: mAb10954 (antibody, V domains shown)
VH: EVQLVESGGGLVQPGGSLRLSCAASGITVSSNYMSWVRQAPGKGLEWVSLIYSGGSTYYADSVKGRFTISRDNSKNTLYLQMNSLRVEDTAVYYCARDHGMAAAGYNYWGQGTLVTVSS
VL: DIQMTQSPSSLSASVGDRVTITCQASQDINKYLNWYQQKPGKAPKLLIYDASNLETGVPSRFSGSGSGTDFTFTINSLQPEDFATYFCQQYDNLPPAFGQGTKVEIKR
On to B4, for which, in the assay with SARS-COV-2 RBD-mFc, the binding result is reported as “binds”.

B5: mAb10955 (antibody, V domains shown)
VH: EVQLVESGGGLVQPGGSLRVSCAASGFTVSRNYMSWVRQAPGKGLEWVSVIYSGGSTFYADSVKGRFTISRDNSKNTLYLQMNSLRAEDTAIYYCARYIPRFDPWGQGTLVTVSS
VL: DIQMTQSPSSLSASVGDRVTITCQASQDISNYLNWFQQKPGRAPKLLIYDASNLETGVPSRFSGSGSGTDFTFTISSLQPEDIATYYCQQYDNLPITFGQGTRLEIKR
Consider B5, for which the binding result with SARS-COV-2 RBD-mFc was “binds”.

B6: mAb11010 (antibody, V domains shown)
VH: QVQLVESGGGVVQPGRSLRLSCAASGFTFSSYGMHWVRQAPGKGLEWVAVISYDGSYKYYADSVKGRFTISRDNSKNTLYLQMNSLRAEDTAVYYCAIDGGTVTTIFDYWGQGTLVTVSS
VL: not shown
Consider B6, for which, in the assay with SARS-COV-2 RBD-mFc, the binding result is “binds”.

B7: mAb11002 (antibody, V domains shown)
VH: EVQLVESGGGLVQPGGSLRLSCAASGFTVSSNYMSWVRQAPGKGLEWVSVIYSGGSTFYADSVKGRFTISRHNSKNTLYLQMNSLRAEDTAVYYCAREGYGMDVWGQGTTVTVSS
VL: not shown
Take B7: the binding result with SARS-COV-2 RBD-mFc is on record as “binds”.

B8: mAb10969 (antibody, V domains shown)
VH: QVQLVESGGGVVQPGRSLRLSCAASGFTFSSYAMHWVRQAPGKGLEWVAVISYDGSNKYYADSVKGRFTISRDNSKNTLYLQMNSLRAEDTAVYYCARDGRTITMVRGVIDDAFDIWGQGTMVTVSS
VL: not shown
Consider B8, for which, in the assay with SARS-COV-2 RBD-mFc, the binding result is “binds”.

B9: mAb11006 (antibody, V domains shown)
VH: EVQLVESGGGLVQPGGSLRLSCAASGFIVSRNYMSWVRQAPGKGLEWVSVIYSGGSTFYADSVKGRFTISRHNSKNTLYLQMNSLKAEDTAVYYCARELRGYFDYWGQGTLVTVSS
VL: DIQLTQSPSFLSASVGDRVTITCWASQGISSYLAWYQQKPGKAPKLLIYAASTLQSGVPSRFSGSGSGTEFTLTISSLQPEDFATYYCQLLNSYPYTFGQGTKLEIK
B9: in the assay with SARS-COV-2 RBD-mFc, the binding result was “binds”.

B10: mAb10915 (antibody, V domains shown)
VH: EVQLVESGGGLVQPGGSLRLSCAASGFTVSSNYMNWVRQAPGKGLEWVSVIYSGGSTFYADSVKGRFTISRHNSKNTLYLQMNSLRPEDTAVYYCARDLGGYFDYWGQGTLVTVSS
VL: not shown
Take B10: the binding result in the assay with SARS-COV-2 RBD-mFc was “binds”.

B11: mAb11008 (antibody, V domains shown)
VH: EVQLVESGGGLVQPGGSLRLSCAASGFTVSSNYMTWVRQAPGKGLEWVSVIYSGGSTFYADSVKGRFTISRHNSENTLYLQMNSLRAEDTAVYYCARDLAAAGTDYWGQGALVTVSS
VL: DIQLTQSPSFLSASVGDRVTITCWASQGISSYLAWYQQKPGKAPKLLIYAASTLQSGVPSRFSGSGSGTEFTLTISSLQPDDFATYYCQHLNSYLYTFGQGTKLEIK
As for B11, in the assay with SARS-COV-2 RBD-mFc, the binding result is “binds”.

B12: mAb10965 (antibody, V domains shown)
VH: EVQLVESGGGLIQPGGSLRLSCAASVFTVSYNYMSWVRQAPGKGLEWVSVIYSGGSTYYADSVKGRFTISRDNSKNTLYLQMNSLRAEDTAVYYCARALPGWGGSFEYFDYWGQGTLVTVSS
VL: not shown
For B12, in the assay with SARS-COV-2 RBD-mFc, the binding result is “binds”.

B13: mAb11004 (antibody, V domains shown)
VH: QVQLVESGGGVVQPGRSLRLSCVASGFTFSIYGMDWVRQAPGKGLEWVAVISYDGSNKYYADSVKGRFTISRDNSKNTLYLQMNSLRPEDTAVYYCAKDREAAADAFDIWGQGTMVTVSS
VL: DIQMTQSPSSVSASVGDRVTITCRASQGISSWLAWYQQKPGKAPKLLIYAASSLHSGVPSRFSGSGSGTDFTLTISSLQPEDFATYYCQQANSFRLTFGGGTKVEIK
Regarding B13, in the assay with SARS-COV-2 RBD-mFc, the binding result is listed as “binds”.

B14: mAb10966 (antibody, V domains shown)
VH: EVQLVESGGGLVQPGGSLRLSCAASGLTVSSNYMSWVRQAPGKGLEWVSVIYSGGSTFYADSVKGRFTISRDNSKNTLYLQMNSLRPEDTAVYYCAREGRIAATGYGMDVWGQGTTVTVSS
VL: not shown
Consider B14, for which, in the assay with SARS-COV-2 RBD-mFc, the binding result is reported as “binds”.

B15: mAb10986 (antibody, V domains shown)
VH: EVQLVESGGGLVQPGGSLRLSCAASEFTVSSNYMSWVRQAPGKGLEWVSVIYSGGSTFYADSVKGRFTISRDNSKNTLYLQMNSLRAEDTAVYYCARALPYGDLHFDYWGQGTLVTVSS
VL: QSVLTQPPSVSGAPGQRVTISCTGSSSNIGTGYDVHWYQQLPGTAPKLLIYGNTNRPSGVPDRFSGSKSGTSASLAITGLQAEDEADYYCQSYDSSLSDSYVFGTGTKVTVLG
For B15, the binding result in the assay with SARS-COV-2 RBD-mFc is given as “binds”.

B16: mAb10985 (antibody, V domains shown)
VH: EVQLVESGGGLVQPGRSLRLSCAASGFTFDDYAMHWVRQAPGKGLEWVSGISWNRGSIGYADSVKGRFTISRDNAKNSLYLQMSSLRAEDTALYYCAKDGERWDSVVVPSARNGMDVWGQGTTVTVSS
VL: QSVLTQPPSVSGAPGQRVTISCTGSSSNIGAGYDVHWYQQLPGTAPKLLIYGNSNRPSGVPDRFSGSKSGTSASLAITGLQAEDEADYYCQSYDSSLSGSYVFGTGTKVTVLG
As to B16, in assay [1], the MFI was 16200 MFI.

B17: mAb10971 (antibody, V domains shown)
VH: EVQLVESGGGLIQPGGSLRLSCAASGVTVSSNYMSWVRQAPGKGLEWVSVIYSGGSTFYSDSVKGRFSISRDNSKNTLYLQMNSLRAEDTAVYYCARDLYYYGMDVWGQGTTVTVSS
VL: DIQLTQSPSFLSASVGDRVTITCRASQGISTYLAWYQQKPGKAPKLLIYAASTLQSGVPSRFSGSGSGTEFTLTISSLQPEDFATYYCQQLDSYPGLTFGGGTKVEIKR
Regarding B17, in the assay with SARS-COV-2 RBD-mFc, the binding result is “binds”.

B18: mAb10956 (antibody, V domains shown)
VH: EVQLVESGGGLVQPGGSLRLSCAASGLTVSSNYMSWVRQAPGKGLEWVSVIYSGGSTFYADSVKGRFTISRDNSKNTLYLQMNSLRAEDTAVYYCARDLIKYGMDVWGQGTTVTVSS
VL: not shown
Take B18: in the assay with SARS-COV-2 RBD-mFc, the binding result is “binds”.

B19: mAb10957 (antibody, V domains shown)
VH: EVQLVESGGGLVQPGGSLRLSCAASGVTVSSNYMSWVRQAPGKGLEWVSVIYSGGSTFYADSVKGRFTISRDNSKNTLFLQMNSLRIEDTAVYYCARDLGPYGMDVWGQGTTVTVSS
VL: DIQLTQSPSFLSASVGDRVTITCRASQGISSYLAWYQQKPGKAPKLLIYAASTLQSGVPSRFSGSGSGTQFILTISSLQPEDFATYYCQQLNSYPGFTFGPGTKVDIKR
Take B19: the binding result with SARS-COV-2 RBD-mFc is “binds”.

B20: mAb10913 (antibody, V domains shown)
VH: EVQLVESGGGLVQPGGSLRLSCAASGFTFRNYEMNWVRQAPGKGLEWVSYITSSGSTMYYADSVKGRFTISRDNAKNSLYLQMNSLRAEDTAVYYCARDGFYYYYAMDVWGQGTTVTVSS
VL: QSVLTQPPSVSAAPGQKVTISCSGSSSNIGNNYVSWYQQLPGTAPKLLIYDNNKRPSGIPDRFSGSKSGTSATLGITGLQTGDEADYYCGTWDSSLSVGRVFGTGTKVTVLG
Consider B20, for which the MFI was 24900 MFI in assay [2] and 18900 MFI in assay [1].

B21: mAb10913 (antibody, V domains shown)
VH: EVQLVESGGGLVQPGGSLRLSCAASGFTFRNYEMNWVRQAPGKGLEWVSYITSSGSTMYYADSVKGRFTISRDNAKNSLYLQMNSLRAEDTAVYYCARDGFYYYYAMDVWGQGTTVTVSS
VL: QSVLTQPPSVSAAPGQKVTISCSGSSSNIGNNYVSWYQQLPGTAPKLLIYDNNKRPSGIPDRFSGSKSGTSATLGITGLQTGDEADYYCGTWDSSLSVGRVFGTGTKVTVLG
As for B21, in the assay with SARS-COV-2 RBD-mFc, the binding result is reported as “binds”.

B22: mAb10964 (antibody, V domains shown)
VH: QVQLQESGPGLVKPSETLSLTCTVSGGSINNYYWIWIRQPPGKGLEWIGYIYHSGSTNYNPSLKSRVTISVDTSKNQFSLKVSSVTAADTAVYYCANMVRGVYEDDYWGQGTLVTVSS
VL: DIQMTQSPSSLSASVGDRVTITCRASQSISNYLNWYQQKPGKAPKLLIFAASSLRSGVPSRFSGSGSGTDFTLTISSLHPEDFATYYCQQNYNTPLTFGPGTKVDIKR
Consider B22, for which the binding result in the assay with SARS-COV-2 RBD-mFc is recorded as “binds”.

B23: mAb10914 (antibody, V domains shown)
VH: EVQLVESGGGLVQPGGSLRLSCAASGLIVSRNYMIWVRQAPGKGLEWVSVIYSGGSTFYADSVKGRFTISRHNSKNTLYLQMNSLRAEDTAVYYCARDLGTGGMDVWGQGTTVTVSS
VL: DIQLTQSPSFLSASVGDRVTITCWASQGISSYLAWYQQKPGKAPKLLIYAASTLQSGVPSRFSGSGSGTEFTLTISSLQPEDFATYYCQQLNSYPLTFGGGTKVEIKR
Consider B23, for which the binding result in the assay with SARS-COV-2 RBD-mFc was “binds”.
